Test results from article PMC12501291, “Cancer-associated fibroblasts expressing FSTL3 promote vasculogenic mimicry formation and drive colon cancer malignancy” (Cell Death & Disease, 2025).

Biological target: T1, FSTL3-FC (biotin) (UniProt O95633, biotin)
T1 construct: FSTL3 gene fused with a human Fc fragment in pCDNA3.4; also called biotinylated FSTL3-FC; source: 293F cells, transfected, purified (Protein A), biotinylated, ultrafiltration; made by SGE BIOTECH
Assay: ELISA; sandwich ELISA with biotinylated FSTL3-FC, aFSTL3 and Activin A-mFC; in vitro
Details: both partners purified

T1 sequence (O95633 27-263): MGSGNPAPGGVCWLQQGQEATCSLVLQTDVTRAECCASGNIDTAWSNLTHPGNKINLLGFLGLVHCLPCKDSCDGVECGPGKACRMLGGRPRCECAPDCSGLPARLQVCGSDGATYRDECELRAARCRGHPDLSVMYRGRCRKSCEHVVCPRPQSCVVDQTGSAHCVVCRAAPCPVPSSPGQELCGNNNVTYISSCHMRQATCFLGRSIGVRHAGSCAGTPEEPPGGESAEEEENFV

binding result: binds
B1: FSTL3-targeting antibodies (aFSTL3) (antibody, V domains shown)
VH: EVQLQQSAAELARPGASVKMSCKASGYSFTTYTMHWVKQRPGQGLEWIGYIHPSSGYTDHIQKFKDKTILTADKSSSTAYMQLNSLTSEDSAVYYCARLDYGYWGQGTTLTVSS
VL: DILMTQTPLSLPVSLGDQASISCRSSQSIVHSNGNTYLEWYLQKPGQSPKLLIYKVSNRFSGVPDRFTGSGSGTDFTLKISRVEAADLGVYYCFQSSHIPPTFGGGTKLEIK
notes: cloned into the PTT5-human IgG1 CH vector; cloned into the PTT5-human kappa CL vector; Human IgG1 CH, human kappa CL; source: 293F cells, transfected, purified (Protein A); made by SGE BIOTECH
